Measurements reported in publication PMC2428073, “Architecture of a Serine Recombinase-DNA Regulatory Complex” (Molecular Cell, 2008).
Where “and” joins values, the source holds several entries; their conditions need not be identical. Equal values may be shown once.

Key:
[1] = molecular target: the molecule itself; assay: crystal structure; WT Sin cocrystallized with a 29 bp site II DNA duplex (2:1.25 molar ratio), hanging drop, 25 mM TRIS pH 7.5, (NH4)2SO4; two DNA-bound Sin dimers per asymmetric unit; 3.21 Å
[2] = molecular target: T1, Sin recombinase (pI9789 Sin) (Staphylococcus aureus (multiresistance …, UniProt P20384 1-202)); assay: X-ray crystallography (MAD/SIRAS, 3.21 A); Crystal structure; protein stored in 25 mM Tris pH 7.5, 0.5 mM EDTA, 400 mM (NH4)2SO4, 20% glycerol; DNA annealed in 100 mM NaCl; crystallization conditions not in the material; conditions: protein: recombinant; tags: His6 (C-terminal); chain copies: 2; overhanging AT dinucleotides pairing with adjacent duplexes
T1 sequence: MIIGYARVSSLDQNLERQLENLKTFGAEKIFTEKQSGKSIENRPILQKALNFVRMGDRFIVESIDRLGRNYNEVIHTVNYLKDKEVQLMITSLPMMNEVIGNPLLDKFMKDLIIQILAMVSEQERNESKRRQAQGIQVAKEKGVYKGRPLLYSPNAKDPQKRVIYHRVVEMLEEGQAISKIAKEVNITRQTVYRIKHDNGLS

B1: Wild-type His6-tagged pI9789 Sin (enzyme, S. aureus, UniProt P20384 1-202, looked up)
chain: T1 sequence
notes: Sin resolvase (serine recombinase family) encoded by S. aureus plasmid pI9789; the crystal holds 836 Sin residues in four monomers (209 each, with the tag); The last nine residues, which contain the His6 tag, are not seen in the model; In the in vivo synapsis assay WT Sin was expressed from pSA9944 (also with a C-terminal His6 tag) in E. coli DS941; also called WT Sin; Sin resolvase; source: E. …
[1]
  stoichiometry N: 2 and 4

B2: Sin res site II 29 bp duplex (dsDNA)
DNA 1: AACGTATGATTAGGGTGTATATTAATTTATA
DNA 2: TAAATTAATATACACCCTAATCATACGTTTA
modifications: 5-Br-dU and iodine-labelled versions used for phasing
[2]
  binding result: binds
